{"source": "IntAct's records for PubMed 16782870", "parents": {"B1": {"name": "Proliferating cell nuclear antigen (Saccharomyces cerevisiae), P15873 (parent)", "chain": "MLEAKFEEASLFKRIIDGFKDCVQLVNFQCKEDGIIAQAVDDSRVLLVSLEIGVEAFQEYRCDHPVTLGMDLTSLSKILRCGNNTDTLTLIADNTPDSIILLFEDTKKDRIAEYSLKLMDIDADFLKIEELQYDSTLSLPSSEFSKIVRDLSQLSDSINIMITKETIKFVADGDIGSGSVIIKPFVDMEHPETSIKLEMDQPVDLTFGAKYLLDIIKGSSLSDRVGIRLSSEAPALFQFDLKSGFLQFFLAPKFNDEE", "partner": "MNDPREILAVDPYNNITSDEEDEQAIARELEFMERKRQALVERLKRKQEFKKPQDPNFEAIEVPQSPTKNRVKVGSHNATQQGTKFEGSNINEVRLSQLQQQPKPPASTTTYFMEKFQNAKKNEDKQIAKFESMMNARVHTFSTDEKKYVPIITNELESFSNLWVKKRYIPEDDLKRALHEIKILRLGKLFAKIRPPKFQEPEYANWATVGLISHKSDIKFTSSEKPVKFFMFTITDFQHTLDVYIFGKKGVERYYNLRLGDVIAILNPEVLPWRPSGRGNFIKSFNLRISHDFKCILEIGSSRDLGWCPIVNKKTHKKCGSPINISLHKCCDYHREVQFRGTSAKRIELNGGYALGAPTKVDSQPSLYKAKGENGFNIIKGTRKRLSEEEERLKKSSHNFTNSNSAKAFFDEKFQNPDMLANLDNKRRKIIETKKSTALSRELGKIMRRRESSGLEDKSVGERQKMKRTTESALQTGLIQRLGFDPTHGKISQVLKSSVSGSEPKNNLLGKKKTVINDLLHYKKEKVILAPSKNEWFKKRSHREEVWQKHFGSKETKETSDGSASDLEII"}, "B2": {"name": "Proliferating cell nuclear antigen (Saccharomyces cerevisiae), P15873 (parent)", "chain": "B1 chain"}, "B3": {"name": "Minichromosome maintenance protein 10 (Saccharomyces cerevisiae), P32354 (parent)", "chain": "B1 partner"}}, "data": [{"variants_of": "B1", "settings": "with mcm10_yeast MCM10, P32354", "values": [{"variant": "A251V", "effect of a mutation on the interaction": "disrupting interaction"}, {"variant": "Y133A", "effect of a mutation on the interaction": "decreasing interaction"}]}, {"variants_of": "B2", "settings": "with dpod3_yeast POL32, P47110", "values": [{"variant": "A251V", "effect of a mutation on the interaction": "decreasing interaction"}, {"variant": "Y133L", "effect of a mutation on the interaction": "decreasing interaction"}, {"variant": "Y133A", "effect of a mutation on the interaction": "decreasing interaction"}]}, {"variants_of": "B3", "settings": "with pcna_yeast POL30, P15873", "values": [{"variant": "L242A", "effect of a mutation on the interaction": "disrupting interaction"}, {"variant": "L242Y", "effect of a mutation on the interaction": "decreasing interaction"}, {"variant": "Y245A", "effect of a mutation on the interaction": "disrupting interaction"}]}]}
